The target of assay [1] is T1, 生物素化重组人白细胞介素1β (rhIL-1β) (human, UniProt P01584 117-269, biotinylated (site not stated)).
T1 construct: Antigen was biotinylated and desalted before the Fortebio Octet measurement; also called 抗原rhIL-1β
Put plainly: BLI (Fortebio Octet QK), biotinylated rhIL-1β, antibody 40-1.25 nM, run 1. Background: In BLI a coated tip is dipped into the sample, and binding shifts an interference pattern.

In assay [2] the target is T1, 生物素化重组人白细胞介素1β (rhIL-1β). Nature of the assay: BLI (Fortebio Octet QK), biotinylated rhIL-1β, antibody 40-1.25 nM, run 2.
Assay [3] deals with T1, 生物素化重组人白细胞介素1β (rhIL-1β). Nature of the assay: BLI (Fortebio Octet QK), summary range of the two runs.

Values joined by “and” are separate entries in the source; they are usually repeats but may differ in a detail not shown here. Equal values may be shown once.

B1: 人源化抗人白细胞介素1β(hIL-1β)单克隆抗体 (antibody, human IgG1, kappa, V domains shown)
VH: EVQLVESGGGLVQPGGSLRLSCAVSGFSLDVYTMTWVRQAPGKGLEWIGYIWSGGSASYASWAKGRFTISKDSSKNTVYLQINSLRAEDTAVYFCARVKMISNIETFDPWGPGTLVTVSS
VL: DIQMTQSPSSVSASVGDRVTIKCQASERIYSGLAWYQQKPGKRPKLLIYRASTLASGVPSRFSGSGSGTDFTLTISSLQPEDFATYYCQQGVSSSDIDNVFGGGTKVEIKR
notes: Full light and heavy chains; Expressed in CHO DG44 cells and purified; also called 人源化抗hIL-1β单克隆抗体; humanized form of rabbit clone Q26
As usually defined, the Kd is the free concentration of one partner at which half of the binding sites on the other are occupied at equilibrium, for simple one-to-one binding. A higher Kd goes with lower affinity. The term koff denotes the first-order rate constant of dissociation. In general, kon refers to a measure of how fast the partners come together. As for B1, the Kd in the assay with 生物素化重组人白细胞介素1β (rhIL-1β) [1] was 0.0211 nM; with 生物素化重组人白细胞介素1β (rhIL-1β) [2] it was 0.0128 nM; in the assay with 生物素化重组人白细胞介素1β (rhIL-1β) [3] it was 0.01 nM and 0.025 nM. For the same molecule, the koff was 3.02e-06 s⁻¹ with 生物素化重组人白细胞介素1β (rhIL-1β) [1] and 2.16e-06 s⁻¹ in the assay with 生物素化重组人白细胞介素1β (rhIL-1β) [2]. Also, the figures for the kon with 生物素化重组人白细胞介素1β (rhIL-1β) [1] and in the assay with 生物素化重组人白细胞介素1β (rhIL-1β) [2] were 143000 M⁻¹ s⁻¹ and 166000 M⁻¹ s⁻¹, respectively.
